In PMC6399291:
Values belong to the substance of their own block, whether it stands above or below them.

What was measured:
CDK4 [1] = biological target: CDK4 (UniProt P11802); test: glutathione-bead pull-down from co-transfected cells, anti-Flag blot; details: sites S351,S377
CDK4 [2] = biological target: CDK4 (UniProt P11802); test: reciprocal co-IP, anti-GFP or anti-CDK4; details: reference: wild type; sites S351,S377
14-3-3β = 14-3-3β (UniProt P31946); test: GFP-14-3-3β IP, anti-myc blot; details: reference: wild type; sites S351,S377
Chain of UniProt P31946 (P31946 whole entry, looked up): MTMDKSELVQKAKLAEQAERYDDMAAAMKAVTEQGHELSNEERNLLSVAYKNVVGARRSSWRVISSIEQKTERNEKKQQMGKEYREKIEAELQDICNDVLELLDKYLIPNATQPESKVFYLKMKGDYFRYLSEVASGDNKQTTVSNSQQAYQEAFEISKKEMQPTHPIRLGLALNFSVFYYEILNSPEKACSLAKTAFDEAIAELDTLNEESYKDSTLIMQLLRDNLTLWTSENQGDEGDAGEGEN

Chain of UniProt P11802 (P11802 whole entry, looked up): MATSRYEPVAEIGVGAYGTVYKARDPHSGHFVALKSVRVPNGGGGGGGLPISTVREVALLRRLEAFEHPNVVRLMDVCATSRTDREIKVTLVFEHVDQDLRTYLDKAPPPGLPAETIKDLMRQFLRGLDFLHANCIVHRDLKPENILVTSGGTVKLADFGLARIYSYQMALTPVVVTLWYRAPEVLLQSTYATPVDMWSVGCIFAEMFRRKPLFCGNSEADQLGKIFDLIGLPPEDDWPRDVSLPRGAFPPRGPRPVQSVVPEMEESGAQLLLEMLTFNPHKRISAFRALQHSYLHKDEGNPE

- binding against the reference (CDK4 [1]; reference: wild type + myc-AMPKα T172D): weaker
Substance: PIKE-A (from UniProt Q99490-2) SA + myc-AMPKα T172D

- binding against the reference (CDK4 [1]; reference: wild type + myc-AMPKα T172A): weaker
Substance: PIKE-A (from UniProt Q99490-2) SA + myc-AMPKα T172A

- binding against the reference (CDK4 [2]): weaker
Substance: PIKE-A (from UniProt Q99490-2) SA

- binding against the reference (14-3-3β): weaker
Substance: PIKE-A (from UniProt Q99490-2) S351/377A (SA)
